Fewer inactive variants are shown than the library holds.
B1: TPR 5TU (parent)
chain: GGAUCUUCUCGAUCUAACAAAAAAGACAAAUCUGCCACAAAGCUUGAGAGCAUCUUCGGAUGCAGAGGCGGCAGCCUUCGGUGGCGCGAUAGCGCCAACGUUCUCAACUAUGACACGCAAAACGCGUGCUCCGUUGAAUGGAGUUUAUCAUG

Variants of: B1
Assay: polymerase ribozyme fitness, log enrichment relative to wild type (log ratio); higher = more active; in vitro selection for triplet polymerase activity
Method in brief: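 PCR was used to build mutant libraries for each subunit of a heterodimeric triplet polymerase ribozyme, which were then transcribed. A single in vitro selection round, in triplicate, used a frozen incubation at −7 °C and recovered extended constructs by gel excision, streptavidin beads and RT-PCR. Fitness is the logarithm of genotype enrichment relative to wild-type enrichment, averaged over replicates with inverse-variance weights. The logarithm is base 2, and after Illumina sequencing only genotypes with ≥10 input reads and ≥1 read per output were kept.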

With GGAUUUUCUCGAUCUAACAAAAAAGACAAAUCUGCCACAAAGCUUGAGAGCAUCUUCGGAUGCAGAGGCGGCAGCCUUCGGAGGAGCGAUAGCGCCAAAGGUCUCAACUAUGACACGCAAAACGCGUGCUCCGUUGAAUCGAGUUUAUCAUG [C5U U82A C85A C99A U101G G140C] as the variant, how does the “polymerase ribozyme fitness (log ratio)” value read?
The value was no more than -4.2.

For GGAUUUUCUCGAUCUAACAAAAAAGACAAAUCUGCCACAAAGCUUGAGAGCAUCUUCGGAUGCAGAGGCGGCAGCCUUCGGUGACGCGAUAGCGCCAACGUUCUCAACUAUGACACGCAAAACGCGUGCUCCGUUGAAUGGAGUUUAUCCUG [C5U G84A A150C], which “polymerase ribozyme fitness (log ratio)” value is on record?
Its value is no more than -4.2.

For GGAUUUUCUCGAGCUAACACAAAAGAGAAAUCUGCCACAAAGCUUGAGAGCAUCUUCGGAUGCAGAGGCGGCAGCCUUCAGUGGCGUGAUAGCGCCAACGUUCUCAACUAUGACACGCAAAACGCGUGCUCCGUUGAAUGGAGUUUAGCAUG [C5U U13G A20C C27G G80A C87U U148G], which “polymerase ribozyme fitness (log ratio)” value is on record?
Its value is no more than -4.2.

With GGAUUUUCUCGAUCUAACAAAAAAGACAAAUCUGCCACAAAGCUGGAGAGCAUCUUCGGAUGCAGAGGCGGCAGCCUUCGGUGGCGCGAUAGCGCCAACGUUCUCAACUAUGACACGCUAAACGCGUGCUCCGUUGAAUGGAGUUUAUCAUG [C5U U45G A119U] as the variant, how does the “polymerase ribozyme fitness (log ratio)” value read?
The value was -0.808.

Which “polymerase ribozyme fitness (log ratio)” value does the source give for GGAUUUUCUCGACCUAACAAAAAAGACAAAUCUGCCACAAAGCUUGAGAGCAUCUUCGGAUGCAGAGGCGGCAGCCUUCGGUGGCGCGAUAGCGUCAACGUUCUCAACUAUGACACGCAAAACGCGUGCUCCGUUGAAUGGAGUUGAUCAUG [C5U U13C C95U U146G] here?
Its value is -1.13.

Which “polymerase ribozyme fitness (log ratio)” value does the source give for GGAUUUACUCGAUCUAACAAAAAAGACAAAUCUGCCACAAAGCUUGAGAGCAUCUUCGGAUGCAGAGGCGGCAGCCUUCGGUGGCGCUAUAGCGCCAACGUUCUCAACUAUGACACGCAAAACGCGUGCUCCGUUGAAUGGAGUUUACCCUG [C5U U7A G88U U148C A150C] here?
The value was no more than -4.2.

Which “polymerase ribozyme fitness (log ratio)” value does the source give for GGAUCAUCUCGCUCUAACAAAAAAGACAAAUCUGCCACAAAGCUUGAGAGCAUCUUCUGAUGCAGAGGCGGCAGCCUUCGGUGGCGCGAUCGCGCCAUCGUUGUCAACUAUGACACGCAAAACGCGUGCUUCGUUGAAUGGAGUUUAUCAUG [U6A A12C G58U A91C A98U C103G C131U] here?
Its value is no more than -4.2.

For GGAUUGUCUCGAUCUAACAAAAAAGACAAAUCUGCCACAAAGCUUGAGAGCAUCUUCGGAUGCAGAGGCGGCAGCCUUGGGUGGCGCGAUAGCGCCAACGUUCUCAACUAUGACACGCAAAACGCGUGCUCCGUUGAAUGGAGUUUAUCAUG [C5U U6G C79G], which “polymerase ribozyme fitness (log ratio)” value is on record?
Its value is no more than -4.2.

For GGAUCAUCUCGAUCUUACAAAAAAGACAAAUCUGCCACAAAGCUUGAGAGCAUCUUCGGAUGCAGAGGCGGCAGCCUUCGGUGGCGCGAUAGCGCCAACGUUCUCACCUAUGACACGCAAAACGCGUGCUGCGUUGAAUGGAGUUUAUCAUG [U6A A16U A107C C131G], which “polymerase ribozyme fitness (log ratio)” value is on record?
Its value is no more than -4.2.

With GGAUCAUCUCGCUCUUACUAAAAAGACAAAUCUGCCACAAAGCUUGAGAGCAUCUUCGGAUGCAGAGGCGGCAGGCUUCGGUGCCGCGAUAGCGCCGUCGUACUCAACUAUGACACGCAAAACUCGUGCUCCGUUGAAUGGAGUUUAUCAUG [U6A A12C A16U A19U C75G G84C A97G A98U U102A G124U] as the variant, how does the “polymerase ribozyme fitness (log ratio)” value read?
The value was no more than -4.2.

With GGAUCAUCUCGAUCUCACAAAAAAGACAAAUCUGCCACAAAGCUUGAGAGCAUCUACGGAAGCAGAGGCGGCAGCCUUCGGUGGCGCGAUAGCGUCAACGUUCUCAACUAUGAUACGCAAAACGCGUGCUCCGUUGAAUGGAGUUUAUCAUG [U6A A16C U56A U61A C95U C114U] as the variant, how does the “polymerase ribozyme fitness (log ratio)” value read?
The value was -3.64.

Which “polymerase ribozyme fitness (log ratio)” value does the source give for GGAUUUUCUCGAUCAAGUAAAAAAGACAAAUCUGCCACAAAACUUGAGAGCAACAUCGGCUGCAGAGCCGGCAGCCUUUGGUGGCGCGAUCGCGCCGACGUUCUCAACUAUGACACGCAAAACGCGUGCUCCGUUGAAUGGAGUUUAUCAUG [C5U U15A A17G C18U G42A U53A U55A A60C G68C C79U A91C A97G] here?
The value was no more than -4.2.

With GGAUCAUCUCGAUCUAACAAAAAAGACAAAUCUGCCACAAAGCUUGAGAGCAUCUUCGGAUGCAGAGGCGGCAGCCUUCGGUGGCGCGAUAGCGCCAACGUUCUCAACUAUGACACGCAAAACGCGUGCUCCGUUGAAUGGAGUUUAUCAUG [U6A] as the variant, how does the “polymerase ribozyme fitness (log ratio)” value read?
Its value is 0.197.

For GGAUCAUCUCGAUCUAACAAACAAGACAAAUCUGCCACAAAGCUUGAGAGCAUCUUCGGAUGCAGAGGCGGCAGUCUUCGGUGACGCGAUAGCGCCGACGUUCUCAAGUAUGCCAAGCAAAACGCGUGCUCCGUGGAAUGGAGUUUAUCAUG [U6A A22C C75U G84A A97G C108G A113C C116A U135G], which “polymerase ribozyme fitness (log ratio)” value is on record?
Its value is no more than -4.2.

For GGAUUUUCUCGAUCUAACAAAAAAGACAAAUCUGCCACAAAGCUUGAGAGCAUCUUCGGAUGCAGAGGCGGCAGCCUUCGGUGUCGCGAUAGCGCCAACGUUCUCAACUAUGACACGCAAAACGCGUGCUCCGUUGAAUGGAGUUUAGCAUG [C5U G84U U148G], which “polymerase ribozyme fitness (log ratio)” value is on record?
The value was no more than -4.2.

With GGAUUUUCUCGAUCGAACAAAAAAGACAAAUCUGCCACCAAGCUUGAGAGCAUCUUCGGAUGCAGUGGCGGCAGCCUUCGGUGGCGCGAUAGCGUCAACGUUCUCAACUAUGACACGCAAAACGCGUGCUCCGUUGAAUGGAGUUUAUCAUG [C5U U15G A39C A66U C95U] as the variant, how does the “polymerase ribozyme fitness (log ratio)” value read?
Its value is -4.2.

Which “polymerase ribozyme fitness (log ratio)” value does the source give for GGAUUUUCUCGAACUAACAAAAAAGACAAAUCUGCCACAAAGCUUGAGAGCAUCUUGGGAUGCAGAGGCGGCAGCCUUCGGUGGCGCGAUAGCGCCAACGUUCUCAACUAUGACACGCAAAACGCGUGCUCCGUUGAAUGUAGUUUAUCAUG [C5U U13A C57G G141U] here?
The value was -1.34.

For GGAUCAUCUCGUUCUAACAAAAAAGACAAAUCUGCCACAAAGCUUGAGAGCAACUUCGGAUGCAGAGGCGGCAGCCUUCGGUGGCGCGAUAGCGCCAACGUUCUCAACUAUGAUACGCAAAACGCGUGCUCCGUUGAAUGGAGUUUAUCAUG [U6A A12U U53A C114U], which “polymerase ribozyme fitness (log ratio)” value is on record?
The value was -3.59.

For GGAUUUUCUCGAUCUAACAAAAAAGACAAAUCUGCCACAAAGCUUGAGAGCAUCUACGGAUGCAGAGGCGGCAGUCUUCGGUCGCGCGAUAGCGCCAACGUUCUCAACUAUGACACGCAAAACGCGUGCUCCGUUGAAUGGAGUUUAUCAUG [C5U U56A C75U G83C], which “polymerase ribozyme fitness (log ratio)” value is on record?
The value was -0.766.
